Assay results from patent US20260199902A1, “SYSTEM AND APPARATUS FOR THE HAND-HELD AMPLIFICATION AND DETECTION OF NUCLEIC ACIDS” (Darwin Biosciences, Inc., priority 2022, published 2026).

B1: NEB RI, murine: murine RNase Inhibitor (M0314; New England BioLabs) (protein, UniProt Q91VI7 1-456, looked up)
Ribonuclease inhibitor: MSLDIQCEQLSDARWTELLPLIQQYEVVRLDDCGLTEVRCKDISSAVQANPALTELSLRTNELGDGGVGLVLQGLQNPTCKIQKLSLQNCGLTEAGCGILPGMLRSLSTLRELHLNDNPMGDAGLKLLCEGLQDPQCRLEKLQLEYCNLTATSCEPLASVLRVKADFKELVLSNNDLHEPGVRILCQGLKDSACQLESLKLENCGITAANCKDLCDVVASKASLQELDLSSNKLGNAGIAALCPGLLLPSCKLRTLWLWECDITAEGCKDLCRVLRAKQSLKELSLASNELKDEGARLLCESLLEPGCQLESLWIKTCSLTAASCPYFCSVLTKSRSLLELQMSSNPLGDEGVQELCKALSQPDTVLRELWLGDCDVTNSGCSSLANVLLANRSLRELDLSNNCMGGPGVLQLLESLKQPSCTLQQLVLYDIYWTNEVEEQLRALEEERPSLRIIS
B2: Proteinase K: listed under Protein RNase Inhibitors (protein, UniProt P06873 106-384, looked up)
Proteinase K: AAQTNAPWGLARISSTSPGTSTYYYDESAGQGSCVYVIDTGIEASHPEFEGRAQMVKTYYYSSRDGNGHGTHCAGTVGSRTYGVAKKTQLFGVKVLDDNGSGQYSTIIAGMDFVASDKNNRNCPKGVVASLSLGGGYSSSVNSAAARLQSSGVMVAVAAGNNNADARNYSPASEPSVCTVGASDRYDRRSSFSNYGSVLDIFGPGTSILSTWIGGSTRSISGTSMATPHVAGLAAYLMTLGKTTAASACRYIADTANKGDLSNIPFGTVNLLAYNNYQA

Columns and labels:
[1] = system: RNase activity in saliva; assay: RNase Alert Assay on saliva samples; type: biochemical, human
Method: FIGS. 3A-D. Optimizing and measuring RNase inhibition by murine RNase Inhibitor (mRI). (A) Diagram of the RNase Alert assay. A quenched fluorescent ssRNA probe reports RNase activity when the quencher and fluorophore are physically separated by RNase degradation. Data is collected immediately after saliva is added to the assay and the RNase activity is calculated from a linear slope of the first 90 second of measurements. (B) RNase activity in five individual saliva samples with or without addition of 4 U/μl mRI. (C) RT-qPCR data for a panel of 12 biomarkers indicating the relative abundance of each biomarker at the indicated time after lysis. Each timepoint is from a pooled saliva sample run through a separate device. Delta Ct values were normalized to the 0 second timepoint. Horizontal bars are mean+/−standard deviation. (D) RNase activity in four saliva samples before and after rehydrating an amplification pad containing 4 U/μl of lyophilized mRI. Saliva in rehydrated pads went through a 20-minute RPA incubation at 39° C. prior to addition to the RNase Alert assay showing that RNase inhibition is long-lived. Ct=Cycle Threshold. […]
To confirm that lyophilized mRI in the amplification pad can rehydrate and inhibit saliva RNases, four amplification pads were rehydrated with saliva and the contents of the rehydrated pads were measured in the RNase Alert Assay (FIG. 3D).

[2] = system: RT-RPA reactions; assay: RT-RPA interference (compatibility) testing of lysis and RNase inhibitor reagents, agarose gel; type: biochemical; parameters: key: Pass (green) indicates that reagents did not interfere with RT-RPA; Partial Pass: Partial pass (yellow) indicates that reagents had partial interference in RT-RPA; Fail (red) indicates reagents completely interfered with RT-RPA reactions; conditions: 4 U/μl final in RT-RPA reaction
Method: FIG. 28. Reagent interference testing in RT-RPA. Lysis and RNase inhibitor reagents tested in RT-RPA using cDNA and RNA templates. RT-RPA reactions were prepared with varying concentrations of reagents, as labeled above (final concentrations in a 20 μl RT-RPA reaction are reported). Amplification products were run on a 2% agarose gel and band intensities were compared to control (No added reagent) reactions. Reactions labeled in red contain no reverse transcriptase. The expected size of the CXCL8 amplicon is indicated to the left of the gel. GuHCI=Guanidine hydrochloride, Triton=Triton X-100.
Reagents under consideration for the device were tested for compatibility with RT-RPA at the concentrations expected to be required for lysis. To test for interference, lysis or RNase inhibitor reagents were spiked into RT-RPA reactions with purified cell line RNA or cDNA as a template. Reactions were analyzed by agarose gel for the presence or absence of amplified products. […]

[3] = system: saliva RNases; assay: RNase activity assay: cell line RNA incubated with treated saliva, read on Agilent TapeStation; type: biochemical, human; parameters: key: Pass (green) indicating sufficient RNase inactivation; Partial Pass (yellow) indicating partial RNase inactivation; Fail (red) indicating incomplete RNase inactivation
Method: FIG. 27. Example of saliva RNase activity assays assayed on TapeStation High Sensitivity RNA ScreenTapes (5067; Agilent). Results from three independent assays are shown. Lanes 1-3 (left to right) are experimental controls including 500 μg RNA in RNase free water, untreated saliva without added cell line RNA, and untreated saliva incubated with cell line RNA. Lanes labeled “Incomplete RNase Inactivation” contain no ribosomal RNA bands, indicating RNase activity is present. Lanes labeled “Sufficient RNase Inactivation” contain sharp ribosomal bands (similar to RNA in water), indicating RNases have been inactivated. gDNA=genomic DNA.
To screen for chemical and protein-based reagents that inhibit saliva RNases, we developed an RNase activity assay in which purified cell line RNA was incubated for 30 min at 37° C. with saliva samples after treatment with potential reagents for RNase inhibition (FIG. 2.5.3). After incubation, RNA was purified and analyzed on an Agilent TapeStation. Sharpness of the eukaryotic ribosomal RNA bands (28S and 18S) were compared to determine RNase activity in the presence of various inhibitors. In addition, the Agilent TapeStation calculates an RNA Integrity Score (RIN) as a measure of RNA quality (RIN of 10-fully intact RNA, RIN of 1=fully degraded RNA), however contaminating nucleic acid (e.g., 16S and 23S rRNA from bacteria) interferes with this calculation.
To screen for chemical and protein-based reagents that inhibit saliva RNases, we developed an RNase activity assay in which purified cell line RNA was incubated for 30 min at 37° C. with saliva samples after treatment with potential reagents for RNase inhibition (FIG. 2.5.3). After incubation, RNA was purified and analyzed on an Agilent TapeStation. Sharpness of the eukaryotic ribosomal RNA bands (28S and 18S) were compared to determine RNase activity in the presence of various inhibitors. […]

| Compatibility in RT-RPA, Result [2] | Molecule | RNase activity in saliva samples ([1]; 4 U/μL added, five donor saliva samples) | Inhibition of RNase activity ([1]; lyophilized in amplification pad, rehydrated with saliva, four pads) | Inactivation of saliva RNases, Result ([3]; 4 U/μl) | Inactivation of saliva RNases, Result ([3]; 8 U/μl) | Inactivation of saliva RNases, Result ([3]; 50 μg/ml and 2.5 mg/ml) |
| --- | --- | --- | --- | --- | --- | --- |
| Pass | B1 | reduced the RNase activity in all five samples to negligible amounts | Nearly complete inhibition of RNase activity | Partial | Pass | – |
| – | B2 | – | – | – | – | Fail |
